Measured values: patent US12195761B2, “Bioprinted, 3D scaffolds for cellular test beds and methods of use thereof” (University of Florida Research Foundation, Inc., priority 2020, dated 2025)

B1: glial cell line-derived neurotrophic factor (protein, UniProt P39905 78-211, looked up)
Glial cell line-derived …: SPDKQMAVLPRRERNRQAAAANPENSRGKGRRGQRGKNRGCVLTAIHLNVTDLGLGYETKEELIFRYCSGSCDAAETTYDKILKNLSRNRRLVSDKVGQACCRPIAFDDDLSFLDDNLVYHILRKHSAKRCGCI
notes: glial cell line-derived neurotrophic factor (R&D Systems 512-GF-010/CF)
B2: Rat beta-nerve growth factor (protein, UniProt P25427 122-241, looked up)
Beta-nerve growth factor: SSTHPVFHMGEFSVCDSVSVWVGDKTTATDIKGKEVTVLGEVNINNSVFKQYFFETKCRAPNPVESGCRGIDSKHWNSYCTTTHTFVKALTTDDKQAAWRFIRIDTACVCVLSRKAARRG
notes: Rat beta-nerve growth factor (R&D Systems 556-NG-100)

What was measured:
rat fibroblast = test: Supplemental rat fibroblast viability study after printing in the bioink; assay type: cell-based; settings: rat fibroblasts; compared to I2959 counterparts
Description: It is anticipated that crosslinking time can be reduced for the LAP group in the future to further increase viability.^40 Therefore, LAP became the crosslinker used for the later experiments for the advantages of LAP over I2959, as previously reported.^31,41

[1] = test system: DRG neural growth cone (GAP43); test: DRG neurite outgrowth in competitive in vitro test beds, GAP43 signal; assay type: cell-based; settings: normalized to total positive area, 7 days, n=3
Procedure: (§1) DRG Neurite Outgrowth in Competitive in vitro Test Beds. A 6-layer rectangular model with two arms or “chambers” were printed on each end (12 mm long, 5 mm wide, and 1.7 mm height). A base layer (0.7 mm height) was printed containing only the hydrogel. On top of the base on either side two “chambers” were printed; each chamber contained a concentration of 1 μg/mL of either NGF, GDNF, or no GF as control. To establish a competitive cue assay, three test bed groups were printed: NGF versus control (NGF/control), GDNF/control, or NGF/GDNF. DRGs were trimmed on the same day as testbed fabrication. Each DRG was semi-encapsulated at the center of the hydrogel testbeds by first placing the DRG directly in the middle of the two-chambered testbed and then securing in place with pH-neutralized Col-d solution at a concentration of 3 mg/mL. Col-d allowed for securing the DRG quickly without the need for direct UV exposure of the DRG. The test beds were incubated for 30 minutes to allow for collagen gelation and then media was added. Media was changed three hours following the addition of DRGs to account for bulk growth factor release into the media. DRGs were cultured for 7 days with media being changed every 2 days.
Following 7 days of culture, DRGs were fixed in 2% paraformaldehyde for 1 hour followed by three PBS rinses of 45 minutes each before blocking in 0.3% Triton X-100 and 3% goat serum in 1×PBS for 1 hour. The primary antibodies used were β-III tubulin to identify microtubules (i.e., indicating neurite extension) and GAP43, a “plasticity” protein that is expressed at high levels in neuronal growth cones (a secondary indicator of new neurite formation). Both antibodies were diluted at 1:500 dilutions and incubated on samples at 4° C. for 48 hours. DRGs were then washed with 0.05% Tween-20 in 1×PBS three times for 6 hours each. Secondary antibodies, AlexaFluor 488 α-rabbit and AlexaFluor 568 α-mouse at 1:500 dilutions, were added for 16 hours in blocking buffer. DRGs were rinsed with 0.05% Tween-20 in 1×PBS three times for 6 hours each. Cell nuclei were stained with DAPI in deionized water for 5 minutes at room temperature. For β-III tubulin marker, top-view images of DRGs were acquired with a Zeiss Axio Imager 2 microscope. ImageJ and the neurite tracer plugin were used to quantify neurite lengths extending from the DRG body. From a ranked list of directional neurite lengths, the five longest neurite extensions were averaged for each chamber side. […] For the GAP43 marker, samples were imaged from the top with a Zeiss LMA 880 confocal microscope. ImageJ was used to threshold positive signal for all images. Positive area was measured as directional outgrowth from each DRG in the left and right directions toward the growth factor chambers relative to the center of the DRG body. […]

Schwann cells (SCs) = test: SC migration in 3D bioprinted hydrogels; assay type: cell-based, Rat; settings: 1 μg/mL growth factor in bioprinted MAHA 10/Col-I hydrogel; 7 days; n=5
Procedure: SC Migration in 3D Bioprinted Hydrogels. The experimental groups included 1 μg/mL of NGF or GDNF encapsulated within 1 mL of bioink, whereas the control group contained no growth factor (no GF) (n=5). The bioinks were used to print a cylinder of 8 mm diameter and 2 mm height. The control group was printed without any growth factor. Next, SCs were seeded on top of the hydrogels at a cell density of 10^5 cells/cm^2 and cultured for 7 days with the media changed every 2 days. Hydrogel samples, stained using a Live/Dead assay, were then placed cell-side-down in a 35-mm diameter glass-bottom dish and imaged using a Zeiss LSM 880 laser-scanning confocal microscope. Z-stacked image of 500 μm deep at 10× magnification were analyzed to assess SC migration into the hydrogel using a Zeiss ZEN 2 software by creating a heat map based on relative depth within the hydrogel to measure the farthest migration points (n=5) in each sample. By taking the average of cell migration depth, this assessment examined the total migration into the biomaterials in 3D culture.

DRG neurites = test: DRG neurite outgrowth in competitive in vitro test beds, β-III tubulin neurite length; assay type: cell-based; settings: 7 days, n=5; for ratio of neurite length, growth factor side to control side: growth factor/control test bed, 1 μg/mL
Procedure: as §1
Following 7 days of culture, DRGs were fixed in 2% paraformaldehyde for 1 hour followed by three PBS rinses of 45 minutes each before blocking in 0.3% Triton X-100 and 3% goat serum in 1×PBS for 1 hour. The primary antibodies used were β-III tubulin to identify microtubules (i.e., indicating neurite extension) and GAP43, a “plasticity” protein that is expressed at high levels in neuronal growth cones (a secondary indicator of new neurite formation). Both antibodies were diluted at 1:500 dilutions and incubated on samples at 4° C. for 48 hours. […] ImageJ and the neurite tracer plugin were used to quantify neurite lengths extending from the DRG body. […] Positive area was measured as directional outgrowth from each DRG in the left and right directions toward the growth factor chambers relative to the center of the DRG body. […]

Row | Molecule | viability of bioprinted cells by photoinitiator (rat fibroblast) | fraction positive GAP43 signal ([1]; NGF/GDNF test bed) | fraction positive GAP43 signal ([1]; growth factor/control test bed) | SCs migrated distance into hydrogels (Schwann cells (SCs)) [μm] | ratio of neurite length, growth factor side to control side (DRG neurites) | ratio of neurite length, NGF to GDNF (DRG neurites; NGF/GDNF test bed, 1 μg/mL each)
1 | Cc1cc(C)c(C(=O)P(=O)([O-])c2ccccc2)c(C)c1.[Li+] [LAP, lithium phenyl-2,4,6-trimethylbenzoyl-phosphinate] | highest viability | – | – | – | – | –
2 | B1 | – | 0.42 | 0.66 | 403±79.6 | 1.41±0.06 | –
3 | B2 | – | 0.58 | 0.63 | 301±89.4 | 1.42±0.13 | 1.09±0.19
